Source: patent US20190023791A1 (GlaxoSmithKline, published 2019)
Several values for one entry are separate records, joined by “and”; a condition that tells them apart may be missing. Equal values may be shown once.

Legend:
[1] = target: T1, human OX40 on cells (activated human CD4+ T cells, stimulated PBMC, lymphocytes in whole blood) (human, UniProt P43489 29-277); test: binding to stimulated human PBMC; stimulated human PBMC; upper end of range
T1 construct: whole, on cells; also called cell-surface OX40; human OX40 receptor on CD4+ T cells
T1 sequence (looked up): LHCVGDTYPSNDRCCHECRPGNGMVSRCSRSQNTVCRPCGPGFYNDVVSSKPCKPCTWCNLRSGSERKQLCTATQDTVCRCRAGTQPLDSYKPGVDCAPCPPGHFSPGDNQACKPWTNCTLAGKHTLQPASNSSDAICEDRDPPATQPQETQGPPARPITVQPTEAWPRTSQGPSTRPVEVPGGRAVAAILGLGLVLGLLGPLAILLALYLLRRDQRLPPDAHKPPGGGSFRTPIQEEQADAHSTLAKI

[2] = target: T2, recombinant OX40 extracellular domain from humans (human, UniProt P43489 29-214); test: binding to recombinant OX40 extracellular domain, method not stated; recombinant human OX40 extracellular domain
T2 construct: extracellular domain; also called human OX40; hOX40
T2 sequence (looked up): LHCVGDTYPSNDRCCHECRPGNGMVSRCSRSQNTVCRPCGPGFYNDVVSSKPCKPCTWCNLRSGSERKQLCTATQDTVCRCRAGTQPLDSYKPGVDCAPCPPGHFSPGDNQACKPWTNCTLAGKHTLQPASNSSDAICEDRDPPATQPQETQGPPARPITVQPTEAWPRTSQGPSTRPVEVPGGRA

[3] = target: T1, human OX40 on cells (activated human …); test: binding to activated human CD4+ T cells; activated human CD4+ T cells
[4] = target: T1, human OX40 on cells (activated human …); test: binding to stimulated human PBMC; stimulated human PBMC; lower end of range
[5] = target: T3, cynomolgus monkey OX40 on cells (activated cynomolgus monkey CD4+ T cells, OX40+ cells in peripheral blood) (cynomolgus monkey); test: binding to activated cynomolgus monkey CD4+ T cells; activated cynomolgus monkey CD4+ T cells
T3 construct: whole, on cells; also called monkey OX40 receptor on CD4+ T cells

[6] = target: T1, human OX40 on cells (activated human …); test: unstimulated human whole-blood binding assay, lymphocytes
[7] = target: T4, recombinant OX40 extracellular domain from cynomolgus monkeys (cynomolgus monkey); test: binding to recombinant OX40 extracellular domain, method not stated
T4 construct: extracellular domain; also called cynomolgus monkey OX40

[8] = target: T1, human OX40 on cells (activated human …); test: cell-based or functional assay
[9] = target: T3, cynomolgus monkey OX40 on cells …; test: cell-based or functional assay

B1: ANTIBODY 106-222 (antibody, human IgG1, kappa, V domains shown)
VH: QVQLVQSGSELKKPGASVKVSCKASGYTFTDYSMHWVRQAPGQGLKWMGWINTETGEPTYADDFKGRFVFSLDTSVSTAYLQISSLKAEDTAVYYCANPYYDYVSYYAMDYWGQGTTVTVSS
VL: DIQMTQSPSSLSASVGDRVTITCKASQDVSTAVAWYQQKPGKAPKLLIYSASYLYTGVPSRFSGSGSGTDFTFTISSLQPEDIATYYCQQHYSTPRTFGQGTKLEIKR
notes: also called humanized wild-type IgG1 anti-OX40 agonistic mAb
**Q.** For B1, which EC50 [1] is on record?
**A.** Its EC50 is no more than 0.3 µg/mL.

**Q.** And the Kd [2]?
**A.** Its Kd is 4.9 nM.

**Q.** And the EC50 [3]?
**A.** Its EC50 is 0.3 µg/mL.

**Q.** What about the EC50 [4] of the same binder?
**A.** The EC50 was no less than 0.1 µg/mL.

**Q.** And the EC50 [5]?
**A.** Its EC50 is 0.35 µg/mL.

**Q.** What about the EC50 [6] of the same binder?
**A.** Its EC50 is 1.45 µg/mL.

**Q.** What about the Kd [7] of the same binder?
**A.** The Kd was 408 nM.

**Q.** And the “anti-CD3 induced proliferation of activated human CD4+ T cells, mean EC50” value [8]?
**A.** The value was 0.19 µg/mL and 1.3 nM.

**Q.** And the “proliferation of immobilized anti-CD3 activated cynomolgus monkey CD4+ T cells, mean EC50” value [9]?
**A.** Its value is 0.72 µg/mL and 4.8 nM.
